Test results from patent publication US10704030B2, “P450-BM3 variants with improved activity” (Codexis, Inc., priority 2015, dated 2020).
Positions count from the first letter of the chain named. Numbers in names are those of the source.

B1: Variant 17: P450-BM3 variant of SEQ ID NO: 6: K32R; C48S; Y52F; I95P; Q111R; G115R; I176V; L216Y; D232H; E349T; M491A; T577A; E619D; D722S (protein)
chain: MTIKEMPQPKTFGELKNLPLLNTDKPVQALMRIADELGEIFKFEAPGSVTRFLSSQRLIKEACDESRFDKNLSQALKFARDFLGDGLFTSWTHEPNWKKAHNILLPSFSQRAMKRYHAMMVDIAVQLVQKWERLNADEHIEVSEDMTRLTLDTIGLCGFNYRFNSFYRDQPHPFIVSMVRALDEVMNKLQRANPDDPAYDENKRQCQEDIKVMNDYVDKIIADRKARGEQSHDLLTQMLNGKDPETGEPLDDGNISYQIITFLIAGHETTSGLLSFALYFLVKNPHVLQKVAEEAARVLVDPVPSYKQVKQLKYVGMVLNEALRLWPTAPAFSLYAKEDTVLGGEYPLTKGDEVMVLIPQLHRDKTIWGDDVEEFRPERFENPSAIPQHAFKPFGNGQRACIGQQFALHEATLVLGMMLKHFDFEDHTNYELDIKETLTLKPEGFVVKAKSKKIPLGGIPSPSTEQSAKKVRKKAENAHNTPLLVLYGSNAGTAEGTARDLADIAMSKGFAPQVATLDSHAGNLPREGAVLIVTASYNGHPPDNAKQFVDWLDQASADEVKGVRYSVFGCGDKNWAATYQKVPAFIDETLAAKGAENIADRGEADASDDFEGTYEEWRDHMWSDVAAYFNLDIENSEDNKSTLSLQFVDSAADMPLAKMHGAFSTNVVASKELQQPGSARSTRHLEIELPKEASYQEGDHLGVIPRNYEGIVNRVTARFGLSASQQIRLEAEEEKLAHLPLAKTVSVEELLQYVELQDPVTRTQLRAMAAKTVCPPHKVELEALLEKQAYKEQVLAKRLTMLELLEKYPACEMKFSEFIALLPSIRPRYYSISSSPRVDEKQASITVSVVSGEAWSGYGEYKGIASNYLAELQEGDTITCFISTPQSEFTLPKDPETPLIMVGPGTGVAPFRGFVQARKQLKEQGQSLGEAHLYFGCRSPHEDYLYQEELENAQSEGIITLHTAFSRMPNQPKTYVQHVMEQDGKKLIELLDQGAHFYICGDGSQMAPAVEATLMKSYADVHQVSEADARLWLQQLEEKGRYAKDVWAG
modifications: P450_BM3
notes: C48S; Y52F; I95P; Q111R; G115R; I176V; L216Y; D232H; E349T; M491A; T577A; E619D; D722S
B2: Variant 15: P450-BM3 variant of SEQ ID NO: 4: K32R; C48S; I95P; L216Y; D232H; E349T; M491A; N574T; T577A; E619D; D722S (protein)
chain: B1 chain with F52Y, L83A, F88V, R111Q, R115G, V176I, N574T
modifications: P450_BM3
notes: C48S; I95P; L216Y; D232H; E349T; M491A; N574T; T577A; E619D; D722S
B3: Variant 14: P450-BM3 variant of SEQ ID NO: 4: C48S; I95P; G115R; L216Y; D232H; M491A; N574T; D722S (protein)
chain: B1 chain with R32K, F52Y, L83A, F88V, R111Q, V176I, T349E, N574T, A577T, D619E
modifications: P450_BM3
notes: I95P; G115R; L216Y; D232H; M491A; N574T; D722S

Legend:
Assay type in all cases: biochemical
[1] = Validation of generalist properties: oxidation of imatinib by lyophilized P450-BM3 variant, UPLC-MS; conditions: [Imatinib] = 1 mM; for TON: TON = [substrate]*% conversion/[P450]; for FIOPC (A07): fold improvement over parent MCYP-1.2-A07
Procedure, shortened: (§1)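 Lyophilized lysate of E. coli-expressed P450-BM3 variant (stock standardized to 12 μM heme) was incubated 24 h at 30 °C with 1 or 2 mM substrate, 1.0 mM NADP+, 25 mM glucose, 0.5 mg/mL glucose dehydrogenase and 5% DMSO in 100 mM potassium phosphate. Acetonitrile-quenched samples were analyzed by UPLC-MS (positive ESI).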

[2] = Validation of generalist properties over the four substrates screened
Experimental: For the production of lyophilized protein powders, LB agar plates supplemented with chloramphenicol (30 μg/mL) were streaked with E. coli containing a desired B. megaterium P450-BM3 variant in an IPTG-inducible vector. The plates were grown at 37° C. for 16 hrs before single clones were selected to inoculate a 15 mL Falcon™ tube (Fisher) containing TB media (3 mL) supplemented with chloramphenicol (30 μg/mL). The tube was shaken at 200 rpm, 30° C., and 85% humidity for 20-24 h to grow the cultures to saturation. Then, 2.5 mL of the overnight culture was used to inoculate sterile 1 L flasks containing TB medium (250 mL) supplemented with chloramphenicol (30 μg/mL), trace element solution (as described above), and 0.05 g/L ammonium iron (III) citrate. After being shaken at 250 rpm, 30° C., and 85% humidity to an OD600 of 0.8-1.2, P450 expression was induced by addition of IPTG (500 uM) and the heme precursor 5-aminolevulinic acid (5-ALA) to a final concentration of 500 uM. The cultures were grown for additional 20-24 hours and centrifuged in pre-weighed 250 mL centrifuge bottles for 20 minutes at 4000 rpm, 4° C. The supernatants were discarded, and the centrifuge bottles containing cell pellets were weighed. The pellets were resuspended in 50 mM potassium phosphate buffer with 2 mM DTT, pH 8.0 (5 mL of buffer per gram of cell pellet). The cells were lysed using a microfluidizer homogenizer, and the suspensions of cells and lysate were collected in sterile 50 mL centrifuge tubes. The samples were centrifuged for 30 minutes at 10,000 rpm, 4° C. The clarified lysate was collected into a plastic petri plate and frozen at −80° C. prior to lyophilization. The enzyme-containing lysates were lyophilized using standard methods known in the art.
Enzyme stocks (˜12 μM) were prepared by dissolving ˜20 mg of each enzyme in 100 mM potassium phosphate buffer, pH 8.0 (1 mL). The concentration of each enzyme stock solution was determined by the UV-visible absorption spectroscopy (after centrifugation to remove particulates) and diluted to standardize at 12 μM heme protein. Substrate solutions were prepared by dissolving each substrate in DMSO to reach a final concentration of 20 mM or 40 mM. Reaction mix (235 μL) followed by enzyme solution (50 μL) was added to the plates. The substrate stock solution was added to the enzyme solutions (15 μL at the two different concentrations). Each reaction contained 100 mM potassium phosphate, 1.0 mM NADP+, 25 mM glucose, 0.5 mg/mL glucose dehydrogenase, 5% DMSO and substrate at 1 or 2 mM. Loratadine, imatinib, and gefitinib (See, FIG. 1) were selected as substrates in addition to diclofenac to validate improved BM3 variants. The reactions were shaken at 450 rpm at 30° C. over 24 hours. All reactions were diluted with acetonitrile to a final concentration of 0.5 mM substrate. The plates were then centrifuged at 3,000 g for 1 hour at 20° C. The supernatant was diluted 1:1 with acetonitrile, filtered using a 0.4 micron filter, and analyzed by UPLC-MS.
For UPLC-MS analysis, the quenched and filtered reactions were transferred to 96-well HTP plates for analysis by UPLC on a Waters Acquity H-class system equipped with an autosampler. 1 uL of quenched sample was injected onto an Acquity UPLC HSS T3 column, 100 Å, (1.8 um; 2.1×100 mm). […] Column eluent was monitored by PDA (200-600 nm) prior to MS analysis in positive ESI mode (desolvation temperature 350° C., 3.25 kV spray voltage, cone voltage 25V). […]

[3] = Validation of generalist properties: oxidation of loratadine by lyophilized P450-BM3 variant, UPLC-MS; conditions: [Loratadine] = 1 mM; for TON: TON = [substrate]*% conversion/[P450]; for FIOPC (A07): fold improvement over parent MCYP-1.2-A07
Procedure, shortened: as §1

[4] = Validation of generalist properties: oxidation of gefitinib by lyophilized P450-BM3 variant, UPLC-MS; conditions: [Gefitinib] = 1 mM; for TON: TON = [substrate]*% conversion/[P450]; for FIOPC (A07): fold improvement over parent MCYP-1.2-A07
Procedure, shortened: as §1

[5] = Validation of generalist properties: oxidation of diclofenac by lyophilized P450-BM3 variant, UPLC-MS; conditions: [Diclofenac] = 1 mM; for TON: TON = [substrate]*% conversion/[P450]; for FIOPC (A07): fold improvement over parent MCYP-1.2-A07
Procedure, shortened: as §1

[6] = fold improvement over parent MCYP-1.2-A12

Molecule | % Conv. [1] | TON [1] | FIOPC (A12) [1, 6] | performance (% conversion at 1 mM substrate loading) over the substrates screened, in words [2] | % Conv. [3] | TON [3] | FIOPC (A12) [3, 6] | % Conv. [4] | TON [4] | FIOPC (A12) [4, 6] | % Conv. [5] | TON [5] | FIOPC (A12) [5, 6] | FIOPC (A07) [1] | FIOPC (A07) [3] | FIOPC (A07) [4] | FIOPC (A07) [5]
B1 | ++++ (15.01-20.00) | ‡‡‡‡ (10000-50000) | **** (10.01-15.00) | improved and significant activity for three out of four substrates screened | + (0-5.00) | ‡ (0-1000) | * (0.0-3.0) | ++++ (15.01-20.00) | ‡‡‡‡ (10000-50000) | *** (5.01-10.0) | ++++ (15.01-20.00) | ‡‡‡‡ (10000-50000) | * (0.0-3.0) | – | – | – | –
B2 | ++++ (15.01-20.00) | ‡‡‡ (5001-10000) | – | moderate activity for all four substrates | ++++ (15.01-20.00) | ‡‡‡‡ (10000-50000) | – | ++++ (15.01-20.00) | ‡‡‡‡ (10000-50000) | – | ++++ (15.01-20.00) | ‡‡‡‡ (10000-50000) | – | ** (3.01-5.0) | * (0.0-3.0) | **** (10.01-15.00) | * (0.0-3.0)
B3 | +++ (10.01-15.00) | ‡‡‡ (5001-10000) | – | moderate activity for all four substrates | +++ (10.01-15.00) | ‡‡‡ (5001-10000) | – | ++++ (15.01-20.00) | ‡‡‡‡ (10000-50000) | – | ++++ (15.01-20.00) | ‡‡‡‡ (10000-50000) | – | * (0.0-3.0) | * (0.0-3.0) | **** (10.01-15.00) | ** (3.01-5.0)
